B1: K03.12 Fab (tag removed, for binding studies) (Fab, V domains shown)
VH: EVQLVQSGAEVKKPGASVKVSCKTSGYTFTAYYLHWVRQAPGQGFEWMAWINPNTGDTNYAQKFQGRVTLSRDTSITTAYMELTRLRSDDTAVYYCAKDLTLMYVFDSGWARGAHDYYGMDVWGQGTTVAVSG
VL: PSALTQPASVSGSPGQSVTISCTGTNSDVGTFDLVSWYQQYPGKAPKLIIYEGSRRPSGVSDRFSGSKSGNTASLTISGLQAEDEADYYCSSYAGSVVFGGGTKLTVL
B2: K03.12 Fab for crystallization (noncleavable 6xHis tag) (Fab, V domains shown)
VH: EVQLVQSGAEVKKPGASVKVSCKTSGYTFTAYYLHWVRQAPGQGFEWMAWINPNTGDTNYAQKFQGRVTLSRDTSITTAYMELTRLRSDDTAVYYCAKDLTLMYVFDSGWARGAHDYYGMDVWGQGTTVAVSG
VL: PSALTQPASVSGSPGQSVTISCTGTNSDVGTFDLVSWYQQYPGKAPKLIIYEGSRRPSGVSDRFSGSKSGNTASLTISGLQAEDEADYYCSSYAGSVVFGGGTKLTVL
B3: K03.1-12 lineage unmutated common ancestor (UCA) Fab (tag removed, for binding studies) (Fab, V domains shown)
VH: not shown
VL: QSALTQPASVSGSPGQSITISCTGTSSDVGSYNLVSWYQQHPGKAPKLMIYEGSKRPSGVSNRFSGSKSGNTASLTISGLQAEDEADYYCCSYAGSVVFGGGTKLTVL
B4: I-11 Fab (inferred evolutionary intermediate of the K03.1-12 lineage) (Fab, V domains shown)
VH: not shown
VL: QSALTQPASVSGSPGQSVTISCTGTSSDVGSYNLVSWYQQHPGKAPKLMIYEGSKRPSGVSNRFSGSKSGNTASLTISGLQAEDEADYYCCSYAGSVVFGGGTKLTVL

Experiments:
[1] = target: HA head of A/Florida/904/2000 (H1N1) (Influenza A virus A/Florida/904/2000 …, UniProt Q91R26, strain); assay: BLI
[2] = target: T1, HA head domain of A/Texas/50/2012 (H3N2) (Influenza A virus A/Texas/50/2012 (H3N2), strain); assay: BLI
[3] = target: T1, HA head domain of A/Texas/50/2012 (H3N2); assay: crystal structure

Binder | binding result [1] | binding result [2] | binding result [3]
B1 | binds | binds | –
B2 | – | – | binds
B3 | binds | binds | –
B4 | binds | binds | –

Source: publication PMC5810956 (Immunity, 2018)
